From publication PMC10288612 come the findings set out here.

The target in the series is HER-2/neu extracellular domain (ErbB2) (human, UniProt P04626 23-652). Briefly: electrochemical bead sandwich assay.

Regarding TTTTTTTTTGCAGCGGTGTGGGG (ssDNA) [monomer-T (monomer-9T)], the Kd turned out to be 0.085 pM.

GCAGCGGTGTGGGGGCAGCGGTGTGGGGGCAGCGGTGTGGGGTTTTT (ssDNA) [trimer] registered a Kd of 0.0261 pM.

TTTTTTGCAGCGGTGTGGGGGCAGCGGTGTGGGG (ssDNA) [dimer] returned a Kd of 0.0374 pM. This Kd and that of the molecule before are within 1.5-fold of each other.

As to GCAGCGGTGTGGGG (ssDNA) [monomer], binding was put at a Kd of 0.121 pM. This Kd is about 3.2-fold higher than that of the molecule before.
